Patent US20130035471A1

Tests used:
biotinylated IgG [1] = assay: BIAcore; half-life calculated as 0.693/koff/60
biotinylated IgG [2] = assay: BIAcore, biotinylated IgG immobilised, mutein injected

2-aa-loop mutein (streptavidin, loop7-8 replaced by N G), sequence (P22629 other isoform, or with tags, fused parts or gaps mutant): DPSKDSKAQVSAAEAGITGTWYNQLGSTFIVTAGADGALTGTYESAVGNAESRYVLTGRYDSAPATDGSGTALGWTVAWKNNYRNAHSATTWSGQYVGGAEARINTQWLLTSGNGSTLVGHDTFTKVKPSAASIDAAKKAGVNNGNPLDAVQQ
6-aa-loop mutein (streptavidin, loop7-8 replaced by D S N G S G), sequence (P22629 other isoform, or with tags, fused parts or gaps mutant): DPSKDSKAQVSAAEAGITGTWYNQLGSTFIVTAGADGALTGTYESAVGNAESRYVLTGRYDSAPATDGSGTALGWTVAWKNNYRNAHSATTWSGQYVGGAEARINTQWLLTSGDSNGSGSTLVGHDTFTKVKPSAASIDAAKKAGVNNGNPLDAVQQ

Row | t1/2 (biotinylated IgG [1]) | Kd (biotinylated IgG [2]) | koff (biotinylated IgG [2]) | kon (biotinylated IgG [2]) | Substance
1 | 2.75 h | 1.12 nM | 7.02e-05 s⁻¹ | 63000 M⁻¹ s⁻¹ | 2-aa-loop mutein (streptavidin, loop7-8 replaced by N G) (from UniProt P22629 25-183)
2 | 2.53 h | 3.13 nM | 7.59e-05 s⁻¹ | 24300 M⁻¹ s⁻¹ | 6-aa-loop mutein (streptavidin, loop7-8 replaced by D S N G S G) (from UniProt P22629 25-183)
3 | 0.45 h | 19 nM | 0.000428 s⁻¹ | 22100 M⁻¹ s⁻¹ | 8-aa-loop-H127C mutein (streptavidin, loop7-8 replaced by D S S N G S D G, with H127C) (from UniProt P22629 25-183)
4 | 0.482 h | 8.1 nM | 0.0004 s⁻¹ | 49600 M⁻¹ s⁻¹ | ΔW-HC mutein (streptavidin with Trp-120 deleted and H127C) (from UniProt P22629 25-183)
